Measurements taken from patent US20260248972A1, “DUAL RECEPTOR TARGETING RADIOLIGANDS AND USES THEREOF RELATED APPLICATIONS” (priority 2022, published 2026).

Test: in vivo
Details: BALB/c nude, mouse, in vivo, iv, total radioactivity
Procedure: To a 0.5 M NaOAc buffer (20-50 μL, pH=4.5) was added 4 μL of exemplary or comparator compound in DMSO stock solution (2000 μM) and 2 mCi ^177Lu (ITM Isotope Technologies Munich), the resulting mixture was heated to 95° C. for 15 min. The resulting product was analyzed by radio-TLC and radio-HPLC (column: Shim-pack GIST 5 μm 4.6*150 mm; buffer A: 0.2% formic acid H2O; buffer B: 0.1% formic acid acetonitrile; flow rate: 1 mL/min; gradient: 0-5 min: 10% B to 95% B; then 5-8 min: 95% B). The labelled products were used immediately or diluted by a PBS buffer containing freshly added 3 mg/mL ascorbate.
All animal care and experimental procedure were performed by following the animal protocols approved by the ethics committee of China Institute of Radiation Protection. The BALB/c nude mice (Charles River, Beijing) were utilized for these studies. Mice were below 5 per cage in sterile, microisolator cages under temperature- and humidity-controlled conditions with a 12 h light/12 h dark schedule and fed irradiated rodent chow and reverse osmosis (RO) sterile water ad libitum. In preparation for tumor cell inoculations, mice were anesthetized with isoflurane (RWD Life Science Inc.) at an induction rate of 4% and maintained at a rate of 2.5% with 0.4 L oxygen delivered via precision vaporizer and a non-rebreathing apparatus. These mice received subcutaneous rear flank injections of approximately 4×10^6 AR42J cells ([…] pancreatic cancer cell line) suspended in 200 μL of phosphate-buffered saline (PBS) and Matrigel (Corning) (1/1). Xenografted tumors were allowed to grow for ~2-4 weeks post-inoculation and ranged in mass from 0.05 to 0.50 g (average tumor size, 0.20 g). […] The mice were euthanized, and the tissues and organs were excised from the animals at 4, 24 and 72 h post-injection. The tissues and organs were weighed, counted in a PerkinElmer 2480 WIZARD2 γ counter, and the percent injected dose (% ID) and % ID/g of each organ or tissue were calculated.

| SMILES | tissue to tissue ratio at 24 h (T/K Tumor/Kidney ratio) | tissue to tissue ratio at 24 h (T/L Tumor/Liver ratio) | tissue to tissue ratio at 24 h (T/P Tumor/Pancreas ratio) | tissue to tissue ratio at 24 h (T/Sp Tumor/Spleen ratio) | tissue to tissue ratio at 24 h (T/St Tumor/Stomach ratio) | tissue uptake at 24 h (uptake Kidney) [%ID/g] | tissue uptake at 24 h (uptake Liver) [%ID/g] | tissue uptake at 24 h (uptake Pancreas) [%ID/g] | tissue uptake at 24 h (uptake Spleen) [%ID/g] | tissue uptake at 24 h (uptake Stomach) [%ID/g] | tissue uptake at 24 h (uptake Tumor) [%ID/g] |
| --- | --- | --- | --- | --- | --- | --- | --- | --- | --- | --- | --- |
| C[C@@H](O)[C@H](NC(=O)[C@@H]1CSSC[C@H](NC(=O)[C@@H](Cc2ccccc2)NC(=O)COCCOCCNC(=O)[C@H](CCCCNC(=O)CC[C@H](NC(=O)CNC(=O)c2cccc(NC(=O)N[C@@H]3CN(C4CCCCC4)c4ccccc4N(CC(=O)C(C)(C)C)C3=O)c2)C(=O)O)NC(=O)COCCOCCNC(=O)COCCOCCNC(=O)COCCOCCNC(=O)COCCOCCNC(=O)COCCOCCNC(=O)CC[C@H](NC(=O)CN2CCN(CC(=O)O)CCN(CC(=O)O)CCN(CC(=O)O)CC2)C(=O)O)C(=O)N[C@@H](Cc2ccc(O)cc2)C(=O)N[C@H](Cc2c[nH]c3ccccc23)C(=O)N[C@@H](CCCCN)C(=O)N[C@@H]([C@@H](C)O)C(=O)N1)C(=O)O [Compound I-22, DOTA-gE-OEG-OEG-OEG-OEG-OEG-K(-gE-G-Z360)-OEG-f[CYwKTC]T-OH)] | 0.6 | 12 | 5 | 12 | 7.5 | 21.9 | 1.1 | 2.6 | 1.1 | 1.7 | 12.7 |
| C[C@@H](O)[C@H](NC(=O)[C@@H]1CSSC[C@H](NC(=O)[C@@H](Cc2ccccc2)NC(=O)[C@H](CCCCNC(=O)c2cccc(NC(=O)N[C@@H]3CN(C4CCCCC4)c4ccccc4N(CC(=O)C(C)(C)C)C3=O)c2)NC(=O)COCCOCCNC(=O)CN2CCN(CC(=O)O)CCN(CC(=O)O)CCN(CC(=O)O)CC2)C(=O)N[C@@H](Cc2ccc(O)cc2)C(=O)N[C@H](Cc2c[nH]c3ccccc23)C(=O)N[C@@H](CCCCN)C(=O)N[C@@H]([C@@H](C)O)C(=O)N1)C(=O)O [Compound I-35, DOTA-OEG-K(Z360)-f[CYwKTC]T-OH] | 2.9 | 3.5 | 19 | 38 | 5.8 | 6.1 | 5.06 | 0.96 | 0.47 | 3.09 | 17.8 |
| C[C@@H](O)[C@H](NC(=O)[C@@H]1CSSC[C@H](NC(=O)[C@@H](Cc2ccccc2)NC(=O)CCOCCOCCOCCNC(=O)[C@H](CCCCNC(=O)c2cccc(NC(=O)N[C@@H]3CN(C4CCCCC4)c4ccccc4N(CC(=O)C(C)(C)C)C3=O)c2)NC(=O)CN2CCN(CC(=O)O)CCN(CC(=O)O)CCN(CC(=O)O)CC2)C(=O)N[C@@H](Cc2ccc(O)cc2)C(=O)N[C@H](Cc2c[nH]c3ccccc23)C(=O)N[C@@H](CCCCN)C(=O)N[C@@H]([C@@H](C)O)C(=O)N1)C(=O)O [Compound I-38, DOTA-K(Z360)-PEG3-f[CYwKTC]T-OH] | 1.8 | 6.1 | 18 | 72 | 4.2 | 7.9 | 2.3 | 0.8 | 0.2 | 3.4 | 14.3 |
| C[C@@H](O)[C@H](NC(=O)[C@@H]1CSSC[C@H](NC(=O)[C@@H](Cc2ccccc2)NC(=O)CCOCCOCCOCCOCCOCCOCCNC(=O)[C@H](CCCCNC(=O)c2cccc(NC(=O)N[C@@H]3CN(C4CCCCC4)c4ccccc4N(CC(=O)C(C)(C)C)C3=O)c2)NC(=O)CN2CCN(CC(=O)O)CCN(CC(=O)O)CCN(CC(=O)O)CC2)C(=O)N[C@@H](Cc2ccc(O)cc2)C(=O)N[C@H](Cc2c[nH]c3ccccc23)C(=O)N[C@@H](CCCCN)C(=O)N[C@@H]([C@@H](C)O)C(=O)N1)C(=O)O [Compound I-40, DOTA-K(Z360)-PEG6-f[CYwKTC]T-OH] | 2 | 5.7 | 59 | 53 | 10 | 8.9 | 3.1 | 0.3 | 0.3 | 1.8 | 17.9 |
